Entries after “also recorded” stand apart in the source; their conditions may differ.
Assays:
[1] = tested on: T1, LRRKtide peptide (RLGRDKYKTLRQIRQ)
T1 sequence: RLGRDKYKTLRQIRQ

[2] = tested on: LRRKtide with +1Leu mutated to Ala
[3] = tested on: LRRKtide with +2Arg mutated to Ala
[4] = tested on: LRRKtide with +5Arg mutated to Ala
[5] = tested on: LRRKtide with -2Tyr mutated to Ala
[6] = tested on: LRRKtide with -2Tyr mutated to Arg
[7] = tested on: LRRKtide with -2Tyr mutated to Glu
[8] = tested on: LRRKtide with -4 (Asp) mutated to Ala
[9] = tested on: LRRKtide with -5Arg mutated to Ala
[10] = tested on: LRRKtide with the +2 residue mutated to Glu
[11] = tested on: LRRKtide with the +2 residue mutated to Pro
[12] = tested on: LRRKtide with the +5 residue mutated to Glu
[13] = tested on: LRRKtide with the +5 residue mutated to Pro
[14] = tested on: T2, Nictide (RLGWWRFYTLRRARQGNTKQR)
T2 sequence: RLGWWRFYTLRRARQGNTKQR

[15] = tested on: Nictide peptides with combined -5, -4 and -1 mutations
[16] = tested on: Nictide with +1Leu mutated to Pro
[17] = tested on: Nictide with +2 Arg mutated to Ala
[18] = tested on: Nictide with -1 Tyr mutated to Ala
[19] = tested on: Nictide with -4Trp mutated to Ala
[20] = tested on: Nictide with -5Trp mutated to Ala
[21] = tested on: Nictide with Thr introduced at the +2 position
[22] = tested on: Nictide with Thr introduced at the -2 position
[23] = tested on: Nictide with Thr residues at both the -2 and +2 positions
[24] = tested on: Nictide with the phosphorylated Thr mutated to Ser

GST-LRRK2 1326-2527 [G2019S] was tested, and the “phosphorylation of GST fusion proteins (32P autoradiography)” value (GST-Nictide) was “phosphorylated to a significantly greater extent by LRRK2 than the other GST-fusion proteins”, the “Km of peptide phosphorylation” value [1] was “Km of 200 µM” and the “Vmax of peptide phosphorylation” value [1] was “Vmax of 14 U/mg”. For the same substance, the “fold decrease of Vmax against wild type LRRKtide” value [2] was “+1Leu (2-fold)”, the peptide phosphorylation [2] was “had no effect on LRRK2 phosphorylation” and the “fold decrease of Vmax against wild type LRRKtide” value [3] was “+2 Arg (4 to 28-fold)”. For the same substance, the “fold increase of Km against wild type LRRKtide” value [3] was “+2Arg (4.5-fold)”, the “fold increase of Km against wild type LRRKtide” value [4] was “+5Arg (4-fold)” and the “fold decrease of Vmax against wild type LRRKtide” value [5] was -2 Tyr (2 to 10-fold). The “fold increase of Km against wild type LRRKtide” value [5] was -2Tyr (2.4-fold), the “Km against wild type LRRKtide” value [6] was “slightly decreased Km” and the “fold decrease of Vmax against wild type LRRKtide” value [6] was -2 Tyr (2 to 10-fold). The “fold decrease of Vmax against wild type LRRKtide” value [7] was -2 Tyr (2 to 10-fold), the “fold increase of Km against wild type LRRKtide” value [7] was “increased Km 4.4-fold” and the “fold decrease of Km against wild type LRRKtide” value [8] was “decreasing Km 2.3-fold”. The “fold increase of Km against wild type LRRKtide” value [9] was -5Arg (2.5 fold), the “Km against wild type LRRKtide” value [10] was “increased Km similarly to the Ala mutation” and the “fold decrease of Vmax against wild type LRRKtide” value [10] was “+2 Arg (4 to 28-fold)”. The “Km against wild type LRRKtide” value [11] was “increased Km similarly to the Ala mutation”, the “fold decrease of Vmax against wild type LRRKtide” value [11] was “+2 Arg (4 to 28-fold)” and the “Km against wild type LRRKtide” value [12] was “increased Km similarly to the Ala mutation”. The “fold decrease of Vmax against wild type LRRKtide” value [12] was “+5 Arg (mutation to Glu 4-fold)”, the “Km against wild type LRRKtide” value [13] was “increased Km similarly to the Ala mutation” and the “Km of peptide phosphorylation” value [14] was “Calculated Km values are 6micromolar for Nictide; also recorded: Km of 10 µM”. The “Vmax of peptide phosphorylation” value [14] was “Vmax of 26 U/mg”, the “fold decrease of Km against LRRKtide” value [14] was 20-fold lower than LRRKtide and the “fold increase of Vmax against LRRKtide” value [14] was 1.7-fold higher than LRRKtide. For the same substance, the “fold increase of Km against Nictide” value [15] was “the Km values were substantially increased 5 to 20-fold compared to Nictide”, the “Km against Nictide” value [16] was “without affecting Km” and the “fold decrease of Vmax against Nictide” value [16] was “only decreased Vmax of LRRK2 phosphorylation under 2-fold”. The “fold decrease of Vmax against Nictide” value [17] was “decreased the Vmax value of phosphorylation 2 to 5-fold”, the “fold increase of Km against Nictide” value [18] was “increased Km values 2 to 3-fold” and the “fold increase of Vmax against Nictide” value [18] was “enhanced Vmax of LRRK2 phosphorylation ~2-fold”. The “fold decrease of Vmax against Nictide” value [19] was “decreased the Vmax value of phosphorylation 2 to 5-fold”, the “fold increase of Km against Nictide” value [19] was “increased Km values 2 to 3-fold” and the “fold increase of Vmax against Nictide” value [19] was “enhanced Vmax of LRRK2 phosphorylation ~2-fold”. For the same substance, the “fold increase of Km against Nictide” value [20] was “increasing the Km value 3-fold”, the “fold increase of Vmax against Nictide” value [20] was “enhanced Vmax of LRRK2 phosphorylation ~2-fold” and the “Km and Vmax against Nictide” value [21] was “moderately increased the Km and reduced the Vmax value”. For the same substance, the “Km and Vmax against Nictide” value [22] was “moderately increased the Km and reduced the Vmax value”, the “fold increase of Km against Nictide” value [23] was “increased Km value of over 10-fold” and the peptide phosphorylation [24] was “almost abolished phosphorylation of the peptide by LRRK2”.

Source: patent US20100068742
